Source: article PMC3173395, “Characterization of the latent membrane protein 1 signaling complex of Epstein-Barr virus in the membrane of mammalian cells with bimolecular fluorescence complementation” (Virology Journal, 2011)

Molecular target: T1, A5-Y384G-NYFP (full-length LMP1 with mutations in CTAR1 and CTAR2, NYFP at the C-terminus) (Epstein-Barr virus, B95-8 strain, UniProt P03230 1-386, amino acids 204-208 PQQAT mutated to AAAAA | Y384G)
T1 sequence: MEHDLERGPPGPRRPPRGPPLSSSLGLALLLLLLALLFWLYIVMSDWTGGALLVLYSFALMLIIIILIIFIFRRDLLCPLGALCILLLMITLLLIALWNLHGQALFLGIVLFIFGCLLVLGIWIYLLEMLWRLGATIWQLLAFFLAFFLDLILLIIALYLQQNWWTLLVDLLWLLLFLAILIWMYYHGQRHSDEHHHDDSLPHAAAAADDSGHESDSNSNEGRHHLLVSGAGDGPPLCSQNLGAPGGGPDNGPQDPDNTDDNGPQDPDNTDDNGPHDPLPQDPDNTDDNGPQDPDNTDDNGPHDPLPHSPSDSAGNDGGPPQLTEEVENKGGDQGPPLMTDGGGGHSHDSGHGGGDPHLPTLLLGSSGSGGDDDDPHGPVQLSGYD
Assay: cell-based or functional assay

B1: CYFP-TRAF2 (CYFP fused to the amino-terminus of TRAF2, amino acids 98-501) (domain or fragment)
chain: REVESLPAVCPSDGCTWKGTLKEYESCHEGRCPLMLTECPACKGLVRLGEKERHLEHECPERSLSCRHCRAPCCGADVKAHHEVCPKFPLTCDGCGKKKIPREKFQDHVKTCGKCRVPCRFHAIGCLETVEGEKQQEHEVQWLREHLAMLLSSVLEAKPLLGDQSHAGSELLQRCESLEKKTATFENIVCVLNREVERVAMTAEACSRQHRLDQDKIEALSSKVQQLERSIGLKDLAMADLEQKVLEMEASTYDGVFIWKISDFARKRQEAVAGRIPAIFSPAFYTSRYGYKMCLRIYLNGDGTGRGTHLSLFFVVMKGPNDALLRWPFNQKVTLMLLDQNNREHVIDAFRPDVTSSSFQRPVNDMNIASGCPLFCPVSKMEAKNSYVRDDAIFIKAIVDLTGL
- NF-kB luciferase reporter activity in HEK-293T cells transfected with A5-Y384G-NYFP + A5-Y384G-CYFP (A5-Y384G BiFC), fold above vector; about 50% of LMP1 and LMP1-BiFC: ~22 fold
